From patent US20030087395A1, “Cardiotrophin-like cytokine” (Human Genome Sciences, Inc., priority 1997, published 2003)

Assays:
Assay type in all cases: cell-based
[1] = tested on: M1 cells; experiment: M1 cell proliferation by BrdU incorporation; details: dose of 100 μL, 72 hours
Procedure: The effect of CLC on cellular proliferation can be assayed in M1 cells by BrdU incorporation. 1×10^4 cells/100 μL are dispensed into 96-well cell culture plates and labeled with 10 μL BrdU. CLC is added to the cells at several doses (0, 5, 25, and 100 μL) and LIF is added to the cells as a positive control at a dose of 100 μL. The cells are allowed to grow for 72 hours at 37° C. The amount of BrdU incorporation is determined by the Cell Proliferation ELISA BrdU colorimetric kit (Boehringer Mannheim).

[2] = tested on: GAS element in M1 cells; experiment: GAS/SEAP reporter assay in M1 cells; details: GAS/SEAP construct in M1 cells; supernatants from 293T cells transfected with CLC expression construct
Description: (§1) The sequence of the 5' primer is: [NT] ID NO:16). […] The sequence of the 3' primer is: [NT] ID NO:17). […] Separate the Optiplates to avoid uneven heating. […] An increase in chemiluminescence indicates reporter activity.

[3] = tested on: GAS element in M1 cells; experiment: SEAP reporter assay, SRE experiment repeated in M1 cells; details: M1 cells replacing TF-1 cells, supernatants from 293T cells transfected with CLC expression vector
Description: (§2) Therefore, activation of the Jaks-STATs pathway, reflected by the binding of the GAS or the ISRE element, can be used to indicate proteins involved in the proliferation and differentiation of cells. For example, growth factors and cytokines are known to activate the Jaks-STATs pathway (see Table below). Thus, by using GAS elements linked to reporter molecules, activators of the Jaks-STATs pathway can be identified. Serum response elements (SREs) play a similar role in signal transduction although the DNA sequence which mediates a serum response is unique from the GAS or ISRE sequences.
(§3) Other constructs can be made using the above description and replacing GAS with a different promoter sequence. For example, construction of reporter molecules containing NF-kB and EGR promoter sequences are described in Examples 6 and 8. However, many other promoters can be substituted using the protocols described in these Examples. For instance, SRE, IL-2, NFAT, or Osteocalcin promoters can be substituted, alone or in combination (e.g., GAS/NF-κB/EGR, GAS/NF-κB, Il-2/NFAT, or NF-κB/GAS). Similarly, other cell lines can be used to test reporter construct activity, such as HeLa (epithelial), HUVEC (endothelial), Reh (B-cell), Saos-2 (osteoblast), HUVAC (aortic) or cardiomyocyte.
(§4) Separate the Optiplates to avoid uneven heating.
(§5) An increase in chemiluminescence indicates reporter activity.

[4] = tested on: M1 cells; experiment: Protein tyrosine phosphorylation after anti-gp130 immunoprecipitation; details: M1 cells treated with CLC or LIF supernatant; band of apparent molecular mass 32 kDa
Procedure: Because of the wide range of known factors capable of stimulating tyrosine kinase activity, identifying whether CLC or a molecule induced by CLC is capable of activating tyrosine kinase signal transduction pathways is of interest. Therefore, the following protocol is designed to identify such molecules capable of activating the tyrosine kinase signal transduction pathways.
Seed NIH-3T3 cells in 15 cm^2 cell culture plates in DMEM supplemented with Pen/Strep, 10% FBS, 25 mM Hepes. […] At the point the experiment begins, the cells should be 80-90% confluent. Collect M1 cells in 50 ml tube and centrifuge 1000 rpm for 5 min. Resuspend the cell pellet in “quiescing medium” which is RPMI supplemented with Pen/Strep, glutamine. (It is important to note that quiescing medium contains neither serum nor growth factors.) Centrifuge again at 1000 rpm for 5 min to wash the cells. Again, resuspend the cells in quiescing medium. Incubate the M1 cells in quiescing medium for 16 hours at 37° C.
Pre-warm quiescing medium (for Ml cells) and a metal tube rack to 37° C. Pre-cool quiescing media (for NIH-3T3 cells) and sterile Eppendorf tubes containing 0.5 ml of sample. […] Resuspend M1 cells to 5.0×10^7 cells per 0.5 ml quiescing media. Place all tubes on per warmed metal rack and leave at 37° C. until ready to begin. Add samples to these pre-aliquoted tubes. […]

[5] = tested on: GAS element in TF-1 cells; experiment: GAS/SEAP reporter assay in TF-1 cells; details: GAS/SEAP construct in TF-1 cells; supernatants from 293T cells transfected with CLC expression construct
Description: as §1

[6] = tested on: Primary cardiomyocytes; experiment: Cardiac myocyte hypertrophy, cell counts in culture
Procedure: (§6) Primary cardiomyocytes, primary neuronal cultures, or other cells are plated at a low density and cultured using standard culturing techniques. […] Cultures are evaluated at a point between 48 and 72 hours post-treatment by counting the number of cells in four non-overlapping fields in three independent cultures and averaging the results.

[7] = tested on: primary neuronal cultures (sympathetic neuron counts); experiment: Neuron counts in primary neuronal cultures
Procedure: as §6

[8] = tested on: SRE element in TF-1 cells; experiment: SRE/SEAP reporter assay in TF-1 cells; details: supernatants from 293T cells transfected with CLC expression vector, SEAP reporter
Description: as §2, §3, §4, §5

[9] = counted 48 to 72 hours post-treatment, four fields in three independent cultures, averaged

B1: CLC: human polypeptide named cardiotrophin-like cytokine, IL-6 cytokine family member; tested as supernatant of transfected 293T cells (protein)
chain: MDLRAGDSWGMLACLCTVLWHLPAVPALNRTGDPGPGPSIQKTYDLTRYLEHQLRSLAGTYLNYLGPPFNEPDFNPPRLGAETLPRATVDLEVWRSLNDKLRLTQNYEAYSHLLCYLRGLNRQAATAELRRSLAHFCTSLQGLLGSIAGVMAALGYPLPQPLPGTEPTWTPGPAHSDFLQKMDDFWLLKELQTWLWRSAKDFNRLKKKMQPPAAAVTLHLGAHGF
modifications: homo sapiens; signal (-27)..(-1)
notes: human polypeptide named cardiotrophin-like cytokine, IL-6 cytokine family member; tested as supernatant of transfected 293T cells
[1]
  inhibition of M1 cell proliferation with respect to the negative control: 3.1 fold
[2]
  induction of the GAS element: 4.5 fold
[3]
  induction of the GAS element (SRE experiment repeated): 3.2 fold
[4]
  band of tyrosine-phosphorylated protein in cell extracts: produced a band of phosphorylated protein
[5]
  activation of the GAS element: 4.6 fold
[6]; [9]
  No. Active Myocytes: 50
[6]; supernatants from CLC-transfected 293T cells, 48 to 72 hours post-treatment
  reduction of cardiomyocyte hypertrophic activity of mock-transfected 293T supernatant: 2 fold
[7]; [9]
  No. Neurons: 86
[7]; samples treated with CLC-transfected supernatants
  change of sympathetic neuron counts: clear increase
[8]
  activation of the SRE element over the negative control level: 2.6 fold
